This data set concerns the molecule itself. The experiment in a line: crystal structure; crystals grown from the entire CF1FO-ATP synthase (18 mg/ml), vapour diffusion, 33% (v/v) PEG 550 MME, 0.05 M sodium acetate pH 4.3; only the c-ring in the crystal; molecular replacement with PDB 2W5J; refined to 6.0 Å.

As usually defined, the stoichiometry N is the number of molecules, sites or subunits per partner or assembly.

B1: subunit c of the CF1FO-ATP synthase from spinach chloroplasts (natural protein, spinach (Spinacea oleracea L.), UniProt P69447 1-81, looked up)
chain: MNPLIAAASVIAAGLAVGLASIGPGVGQGTAAGQAVEGIARQPEAEGKIRGTLLLSLAFMEALTIYGLVVALALLFANPFV
notes: ATP synthase subunit c (subunit III), chloroplastic, Spinacia oleracea; native protein from the tissue; the last four C-terminal amino acids are not visible in the electron density map; Native, untagged protein; Homo-oligomeric ring of 14 copies; also called subunit III; c-ring; source: the c-ring alone was left in the crystal; copies: 14
On to B1, for which the “stoichiometry N” value is 14.
